Consider three substances from paper PMC8452638.

In series [1] the target is RAD-51 (nematode) (UniProt Q95Q25).
For series [2], the system named is RAD-51 (nematode). The series is described as follows: stopped-flow Cy3 fluorescence, competitor challenge. The conditions noted are these: Cy3 in backbone after nt 21; SF buffer: 50 mM Tris-HCl pH 7.5, 5 mM MgCl2, 50 mM NaCl, 2 mM ATP or ADP or no nucleotide; EMSA 25 C with 0.125% glutaraldehyde; BLI room temperature with …. (In general: In EMSA bound probe runs differently from free probe, usually more slowly.)

Series [3] concerns RAD-51 (nematode). The series is described as follows: stopped-flow Cy3 fluorescence. The following applies: SF buffer: 50 mM Tris-HCl pH 7.5, 5 mM MgCl2, 50 mM NaCl, 2 mM ATP or ADP or no nucleotide; EMSA 25 C with 0.125% glutaraldehyde; BLI room temperature with ….

Turning to “RFS-1/RIP-1 complex (from UniProt P34348 1-245)”, the stopped-flow, Cy3-43mer ssDNA (15 nM), RAD-51 1 uM pre-mixed with increasing RFS-1/RIP-1 (up to 1 uM), no nucleotide: reduction of the fluorescence increase due to RAD-51 binding to ssDNA with RAD-51 (nematode) [1] was 3 fold. “TTTTTTTTTTTTTTTTTTTTTTTTTTTTTTTTTTTTTTTTTTT [(Int21)-Cy3-43mer]”: the K half in the series with RAD-51 (nematode) [2] came out at 26 nM. One may read the IC50 as the point on the concentration scale where inhibition reaches its midpoint. Substance “TTTTTTTTTTTTTTTTTTTTTTTTTTTTTTTTTTTTTTTTTTT [Cy3-43mer (label position not stated)]” displayed an IC50 in the series on RAD-51 (nematode) [3] of 200 nM.
